Assays:
RXRa = RXRa (Homo sapiens, UniProt P19793); assay: no ligand; PBM; 180 nM; PBS pH 7.4, 2% milk, 0.02% Triton X-100, 1 mM DTT, BSA, 0.4 mg/ml salmon testes DNA; details: tags: His cleaved; chain copies: 2; label: surface-attached array probe
PPARg:RXRa = PPARg:RXRa (Homo sapiens, UniProt P37231;P19793 full;full); assay: no ligand; PBM; 180 nM : 90 nM RXRa; PBS pH 7.4, 2% milk, 0.02% Triton X-100, 1 mM DTT, BSA, 0.4 mg/ml salmon testes DNA; details: tags: His kept;His cleaved; copies: 1;1; label: surface-attached array probe
RARa:RXRa = RARa:RXRa (Homo sapiens, UniProt P10276;P19793 full;full); assay: no ligand; PBM; 270 nM : 90 nM RXRa; PBS pH 7.4, 2% milk, 0.02% Triton X-100, 1 mM DTT, BSA, 0.4 mg/ml salmon testes DNA; details: tags: His kept;His cleaved; copies: 1;1; label: surface-attached array probe
Outline: (§1)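 Ligand-free nuclear receptor dimers were bound for 1 h to custom Agilent 4×180K protein-binding microarrays. Detection used antibodies against each partner (one per run). Binding z-scores rest on regression-normalized fluorescence, with random background probes as the reference.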

RARb:RXRa = RARb:RXRa (Homo sapiens, UniProt P10826;P19793 full;full); assay: as above; details: tags: His kept;His cleaved; copies: 1;1; label: surface-attached array probe
Outline: as §1

VDR:RXRa = VDR:RXRa (Homo sapiens, UniProt P11473;P19793 full;full); assay: as above; details: tags: His kept;His cleaved; copies: 1;1; label: surface-attached array probe
Outline: as §1

LXRa:RXRa = LXRa:RXRa (Homo sapiens, UniProt Q13133;P19793 full;full); assay: as above; details: tags: His kept;His cleaved; copies: 1;1; label: surface-attached array probe
Outline: as §1

PPARa:RXRa = PPARa:RXRa (Homo sapiens, UniProt Q07869;P19793 full;full); assay: as above; details: tags: GST kept;His cleaved; copies: 1;1; label: surface-attached array probe
Outline: as §1

LXRb:RXRa = LXRb:RXRa (Homo sapiens, UniProt P55055;P19793 full;full); assay: as above; details: tags: His kept;His cleaved; copies: 1;1; label: surface-attached array probe
Outline: as §1

FXR:RXRa = FXR:RXRa (Homo sapiens, UniProt Q96RI1;P19793 full;full); assay: as above; details: tags: His kept;His cleaved; copies: 1;1; label: surface-attached array probe
Outline: as §1

PXR:RXRa = PXR:RXRa (Homo sapiens, UniProt O75469;P19793 full;full); assay: as above; details: tags: His kept;His cleaved; copies: 1;1; label: surface-attached array probe
Outline: as §1

RARg:RXRa = RARg:RXRa (Homo sapiens, UniProt P13631;P19793 full;full); assay: as above; details: tags: His kept;His cleaved; copies: 1;1; label: surface-attached array probe
Outline: as §1

LXRa:RXRa, sequence (Q13133 whole entry, chain 1 of 2): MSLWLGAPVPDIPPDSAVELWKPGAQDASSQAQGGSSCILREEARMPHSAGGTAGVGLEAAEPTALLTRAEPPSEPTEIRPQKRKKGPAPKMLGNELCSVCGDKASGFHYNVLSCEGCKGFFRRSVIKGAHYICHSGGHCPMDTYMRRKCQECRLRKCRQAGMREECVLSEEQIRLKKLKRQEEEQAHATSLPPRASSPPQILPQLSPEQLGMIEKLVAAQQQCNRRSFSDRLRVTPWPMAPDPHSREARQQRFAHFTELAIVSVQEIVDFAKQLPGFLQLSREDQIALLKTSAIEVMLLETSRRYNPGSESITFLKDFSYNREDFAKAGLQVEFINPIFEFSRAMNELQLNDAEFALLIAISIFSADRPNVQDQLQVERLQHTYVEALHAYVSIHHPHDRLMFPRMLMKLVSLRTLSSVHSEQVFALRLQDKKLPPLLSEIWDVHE
LXRa:RXRa, sequence (P19793 whole entry, chain 2 of 2): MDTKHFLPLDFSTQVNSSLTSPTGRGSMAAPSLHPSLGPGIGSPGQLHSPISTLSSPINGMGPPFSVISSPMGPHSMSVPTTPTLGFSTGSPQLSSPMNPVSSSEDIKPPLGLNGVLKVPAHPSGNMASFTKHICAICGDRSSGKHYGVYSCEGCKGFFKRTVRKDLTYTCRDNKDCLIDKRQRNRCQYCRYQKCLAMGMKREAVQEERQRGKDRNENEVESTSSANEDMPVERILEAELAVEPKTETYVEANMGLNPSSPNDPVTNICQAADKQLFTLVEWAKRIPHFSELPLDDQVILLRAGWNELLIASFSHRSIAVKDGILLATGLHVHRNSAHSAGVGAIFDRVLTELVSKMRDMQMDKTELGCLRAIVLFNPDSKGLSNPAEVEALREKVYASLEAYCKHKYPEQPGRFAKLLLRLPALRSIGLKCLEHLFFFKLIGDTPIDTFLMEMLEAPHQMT
RARa:RXRa, sequence (P10276 whole entry, chain 1 of 2): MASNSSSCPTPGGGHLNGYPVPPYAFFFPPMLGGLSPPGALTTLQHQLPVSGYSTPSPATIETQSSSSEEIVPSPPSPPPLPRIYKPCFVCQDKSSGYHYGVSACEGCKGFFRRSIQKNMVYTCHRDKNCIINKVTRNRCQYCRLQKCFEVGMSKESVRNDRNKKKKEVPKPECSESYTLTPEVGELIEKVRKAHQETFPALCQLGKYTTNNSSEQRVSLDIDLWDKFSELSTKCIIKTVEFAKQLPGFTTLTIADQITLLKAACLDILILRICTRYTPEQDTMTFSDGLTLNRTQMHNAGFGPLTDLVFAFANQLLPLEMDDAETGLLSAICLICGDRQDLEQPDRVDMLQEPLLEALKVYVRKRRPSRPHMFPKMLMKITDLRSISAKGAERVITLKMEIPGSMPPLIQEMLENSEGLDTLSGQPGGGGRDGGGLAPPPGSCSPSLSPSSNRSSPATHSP
RARa:RXRa, sequence (P19793 whole entry, chain 2 of 2): as the sequence (P19793 whole entry, chain 2 of 2) above
RXRa, sequence (P19793 whole entry): as the sequence (P19793 whole entry, chain 2 of 2) above
VDR:RXRa, sequence (P11473 whole entry, chain 1 of 2): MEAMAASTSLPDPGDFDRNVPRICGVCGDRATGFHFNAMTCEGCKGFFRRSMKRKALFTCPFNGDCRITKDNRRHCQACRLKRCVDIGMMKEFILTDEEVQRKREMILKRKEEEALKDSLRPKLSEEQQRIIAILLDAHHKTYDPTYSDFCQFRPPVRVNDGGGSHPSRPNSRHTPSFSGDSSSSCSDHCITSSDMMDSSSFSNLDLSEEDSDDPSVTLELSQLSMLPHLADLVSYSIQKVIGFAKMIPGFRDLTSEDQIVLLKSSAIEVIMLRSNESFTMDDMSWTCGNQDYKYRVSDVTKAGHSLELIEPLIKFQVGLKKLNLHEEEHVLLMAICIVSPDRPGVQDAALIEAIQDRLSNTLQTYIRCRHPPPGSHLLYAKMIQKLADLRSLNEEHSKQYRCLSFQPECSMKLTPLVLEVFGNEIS
VDR:RXRa, sequence (P19793 whole entry, chain 2 of 2): as the sequence (P19793 whole entry, chain 2 of 2) above
RARb:RXRa, sequence (P10826 whole entry, chain 1 of 2): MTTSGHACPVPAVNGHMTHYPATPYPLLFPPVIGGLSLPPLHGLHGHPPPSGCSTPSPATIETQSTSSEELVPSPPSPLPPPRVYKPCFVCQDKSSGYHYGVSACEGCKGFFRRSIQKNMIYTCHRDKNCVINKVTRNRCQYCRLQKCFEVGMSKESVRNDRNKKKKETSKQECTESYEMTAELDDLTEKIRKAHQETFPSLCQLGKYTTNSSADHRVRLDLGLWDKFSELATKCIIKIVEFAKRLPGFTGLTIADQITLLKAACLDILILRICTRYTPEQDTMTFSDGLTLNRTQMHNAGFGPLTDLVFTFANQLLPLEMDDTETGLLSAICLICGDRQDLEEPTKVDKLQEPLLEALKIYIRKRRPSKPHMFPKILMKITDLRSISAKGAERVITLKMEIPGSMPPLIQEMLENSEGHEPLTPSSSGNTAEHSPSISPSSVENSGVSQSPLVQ
RARb:RXRa, sequence (P19793 whole entry, chain 2 of 2): as the sequence (P19793 whole entry, chain 2 of 2) above

Row | Binder | binding signal (RXRa) | binding signal (PPARg:RXRa) | binding signal (RARa:RXRa) | binding signal (RARb:RXRa) | binding signal (VDR:RXRa) | binding signal (LXRa:RXRa) | binding signal (PPARa:RXRa) | binding signal (LXRb:RXRa) | binding signal (FXR:RXRa) | binding signal (PXR:RXRa) | binding signal (RARg:RXRa)
1 | NRC3_wobSeed27_DR1_A12G_o1 (dsDNA) DNA 1: GCACTCGGAGGGCAAAGGTCAGAGCTACGCCAGTGAGCGATTGACAGCGTAGAATGAAGG DNA 2: CCTTCATTCTACGCTGTCAATCGCTCACTGGCGTAGCTCTGACCTTTGCCCTCCGAGTGC | 8.52 PBM z-score against 500 random probes | 9.6 PBM z-score against 500 random probes | 7.48 PBM z-score against 500 random probes | – | – | – | – | – | – | – | –
2 | NRC3_wobSeed29_DR1_C8G_o1 (dsDNA) DNA 1: GCGCTTAGGGGTCAAAGGTTATAGCATGAATAGAATGCGATTGACAGCGTAGAATGAAGG DNA 2: CCTTCATTCTACGCTGTCAATCGCATTCTATTCATGCTATAACCTTTGACCCCTAAGCGC | 10.6 PBM z-score against 500 random probes | – | 9.11 PBM z-score against 500 random probes | 5.84 PBM z-score against 500 random probes | 7.19 PBM z-score against 500 random probes | 7.36 PBM z-score against 500 random probes | 7.64 PBM z-score against 500 random probes | 7.75 PBM z-score against 500 random probes | 9.03 PBM z-score against 500 random probes | 7.35 PBM z-score against 500 random probes | 8.66 PBM z-score against 500 random probes
3 | NRC3_wobSeed97_DR4_T8A_o1 (dsDNA) DNA 1: GCCAAACAAGGTCACGAAAGGTCAAAGTCGAATGACGCGATTGACAGCGTAGAATGAAGG DNA 2: CCTTCATTCTACGCTGTCAATCGCGTCATTCGACTTTGACCTTTCGTGACCTTGTTTGGC | 9.58 PBM z-score against 500 random probes | – | 8.72 PBM z-score against 500 random probes | 6.14 PBM z-score against 500 random probes | 7.94 PBM z-score against 500 random probes | 8.85 PBM z-score against 500 random probes | 7 PBM z-score against 500 random probes | 8.12 PBM z-score against 500 random probes | 8.87 PBM z-score against 500 random probes | 7.87 PBM z-score against 500 random probes | 8.87 PBM z-score against 500 random probes
4 | NRC3_wobSeed73_DR3_T8A_o1 (dsDNA) DNA 1: GCCAAACAAGGTCACAGAGGTCAAAGTCCGTGCGTAGCGATTGACAGCGTAGAATGAAGG DNA 2: CCTTCATTCTACGCTGTCAATCGCTACGCACGGACTTTGACCTCTGTGACCTTGTTTGGC | 10.1 PBM z-score against 500 random probes | – | 8.63 PBM z-score against 500 random probes | 6.08 PBM z-score against 500 random probes | 8.7 PBM z-score against 500 random probes | 7.79 PBM z-score against 500 random probes | 6.92 PBM z-score against 500 random probes | 7.37 PBM z-score against 500 random probes | 8.84 PBM z-score against 500 random probes | 7.48 PBM z-score against 500 random probes | 8.47 PBM z-score against 500 random probes
5 | NRC3_wobSeed121_DR5_C30T_o1 (dsDNA) DNA 1: GCCAAACTAGGTCACCGGAAGGTCAAAGTTCGCATGGCGATTGACAGCGTAGAATGAAGG DNA 2: CCTTCATTCTACGCTGTCAATCGCCATGCGAACTTTGACCTTCCGGTGACCTAGTTTGGC | 8.07 PBM z-score against 500 random probes | 10.6 PBM z-score against 500 random probes | 8.54 PBM z-score against 500 random probes | – | – | – | – | – | – | – | –
6 | NRC3_wobSeed138_DR5_C23T_o1 (dsDNA) DNA 1: GCGATACAGGGTCAGCTAGAGGTCAGAGTATGGAAAGCGATTGACAGCGTAGAATGAAGG DNA 2: CCTTCATTCTACGCTGTCAATCGCTTTCCATACTCTGACCTCTAGCTGACCCTGTATCGC | – | 5.41 PBM z-score against 500 random probes | 7.75 PBM z-score against 500 random probes | – | – | – | – | – | – | – | 9.04 PBM z-score against 500 random probes
7 | NRC3_wobSeed97_DR4_T8G_o1 (dsDNA) DNA 1: GCCAAACGAGGTCACGAAAGGTCAAAGTCGAATGACGCGATTGACAGCGTAGAATGAAGG DNA 2: CCTTCATTCTACGCTGTCAATCGCGTCATTCGACTTTGACCTTTCGTGACCTCGTTTGGC | 9.84 PBM z-score against 500 random probes | – | 8.33 PBM z-score against 500 random probes | 6.03 PBM z-score against 500 random probes | 7.51 PBM z-score against 500 random probes | 8.87 PBM z-score against 500 random probes | 6.96 PBM z-score against 500 random probes | 7.93 PBM z-score against 500 random probes | 9.24 PBM z-score against 500 random probes | 7.9 PBM z-score against 500 random probes | 8.98 PBM z-score against 500 random probes
8 | NRC3_wobSeed97_DR4_C7A_o1 (dsDNA) DNA 1: GCCAAAATAGGTCACGAAAGGTCAAAGTCGAATGACGCGATTGACAGCGTAGAATGAAGG DNA 2: CCTTCATTCTACGCTGTCAATCGCGTCATTCGACTTTGACCTTTCGTGACCTATTTTGGC | – | – | 8.32 PBM z-score against 500 random probes | – | 7.26 PBM z-score against 500 random probes | – | – | 7.91 PBM z-score against 500 random probes | 8.43 PBM z-score against 500 random probes | 7.78 PBM z-score against 500 random probes | 8.41 PBM z-score against 500 random probes

— article PMC6555819, “Comprehensive study of nuclear receptor DNA binding provides a revised framework for understanding receptor specificity”
